Reference: PMC10675840, “Structure-function analysis of ceTIR-1/hSARM1 explains the lack of Wallerian axonal degeneration in C. elegans” (Cell reports, 2023)

B1: ceTIR-1^TIR (residues 703-872) [C. elegans] / itself (parent)
chain: MLSKQIDVFISYRRSTGNQLASLIKVLLQLRGYRVFIDVDKLYAGKFDSSLLKNIQAAKHFILVLTPNSLDRLLNDDNCEDWVHKELKCAFEHQKNIIPIFDTAFEFPTKEDQIPNDIRMITKYNGVKWVHDYQDACMAKVVRFITGELNRTTPTTKEMPSISRKTTQQR

Variants of: B1
Experiment: gel filtration (size exclusion chromatography)
Details: with itself

Variant	elution volume
chain 1 L27H	17.2 mL
